Results from PMC12561426, “Dissecting the Interplay Between NRF2 and BACH1 at CsMBEs” (Antioxidants, 2025).

B1: BACH1^DBD with the uncleaved 6xHis linker (released by TEV from BACH1-TEV-sMafGχ^YbbR) (domain or fragment)
chain: not shown
notes: The linker stays on this chain and gives the supershift; also called BACH1^DBD-6xHis-TEV; BACH1 of BACH1/sMafG^YbbR; source: cut from the chimera by TEV in the assay; not shown: linker with 6xHis (3C site removed, up to the TEV site), C-terminal, kept
B2: BACH1^DBD (domain or fragment)
chain: not shown
notes: The His-tag is called cleavable; TEV and 3C proteases were present in the EMSA samples; also called BACH1^DBD-3C-6xHis; source: E. coli One Shot BL21 Star (DE3), purified (HisTrap, heparin, SEC)
B3: NRF2^DBD with the uncleaved 6xHis linker (released by TEV from NRF2-TEV-sMafGχ^YbbR) (domain or fragment, human, UniProt Q16236 451-567, looked up)
chain: EAHLTRDELRAKALHIPFPVEKIINLPVVDFNEMMSKEQFNEAQLALIRDIRRRGKNKVAAQNCRKRKLENIVELEQDLDHLKDEKEKLLKEKGENDKSLHLLKKQLSTLYLEVFSM
notes: The linker stays on this chain and gives the supershift; also called NRF2^DBD-6xHis-TEV; NRF2 of NRF2/sMafG^YbbR; source: cut from the chimera by TEV in the assay; not shown: linker with 6xHis (3C site removed, up to the TEV site), C-terminal, kept
B4: NRF2^DBD released by 3C from NRF2-sMafGχ (domain or fragment, human, UniProt Q16236 451-567, looked up)
chain: B3 chain
notes: also called NRF2 of NRF2/sMafG; source: E. coli One Shot BL21 Star (DE3), purified as the chimera (HisTrap, heparin, SEC); cut from the chimera by 3C and TEV in the assay; not shown: linker with 3C site and 6xHis, C-terminal, cleaved
B5: BACH1^DBD released by 3C from BACH1-sMafGχ (domain or fragment)
chain: not shown
notes: also called BACH1 of BACH1/sMafG; source: E. coli One Shot BL21 Star (DE3), purified as the chimera (HisTrap, heparin, SEC); cut from the chimera by 3C and TEV in the assay; not shown: linker with 3C site and 6xHis, C-terminal, cleaved
B6: NRF2^DBD (domain or fragment, human, UniProt Q16236 451-567, looked up)
chain: B3 chain
notes: The His-tag is called cleavable; TEV and 3C proteases were present in the EMSA samples; also called NRF2^DBD-3C-6xHis; source: E. coli One Shot BL21 Star (DE3), purified (His-tag purification, heparin)

Experiments:
[1] = molecular target: T1, sMafG^YbbR (fluorescein-labelled sMafG^DBD-YbbR released by TEV from NRF2-TEV-sMafGχ^YbbR or … (human, UniProt O15525 1-162, fluorescein (CoA-fluorescein conjugate put on the YbbR tag by Sfp))); experiment: native gel or EMSA; competition: fluorescein-labelled chimera (150 nM) assembled on Cy5-labelled dsDNA (3 nM) with TEV and 3C 4 h at 25 C, then the DBD competitor (150 nM-1.5 uM) added, overnight at 4 C; 10% non-denaturing gel, Cy5 and fluorescein scans; settings: both partners purified
T1 construct: small Maf protein G (sMafG), human, residues 1-162, the C-terminal half of the chimeric constructs; source: cut from the chimera by TEV in the assay; not shown: linker with 6xHis and TEV site, N-terminal, cleaved

[2] = molecular target: the molecule itself; experiment: SEC-MALS; Superdex 75 increase 10/300, 50 mM HEPES pH 7.9, 2 mM TCEP, 500 mM NaCl, 1-2 mg protein injected; without DNA
[3] = molecular target: T2, sMafG^DBD released by TEV from NRF2-sMafGχ or BACH1-sMafGχ (human, UniProt O15525 1-162); experiment: native gel or EMSA; chimeric constructs (0-300 nM) titrated on fluorescein-labelled CsMBE dsDNA (3 nM) with TEV and 3C proteases 4 h at 25 C; 150 mM NaCl, 50 mM HEPES pH 7.9, 10% glycerol, 1 mM TCEP, 1 mM DTT, 2 mM MgCl2; 6% non-denaturing gel; heterodimer on DNA; settings: both partners purified
T2 construct: small Maf protein G (sMafG), human, residues 1-162, the C-terminal half of the chimeric constructs; also called sMafG of NRF2/sMafG and BACH1/sMafG; sMafG^DBDχ; source: E. coli One Shot BL21 Star (DE3), purified as the chimera (HisTrap, heparin, SEC); cut from the chimera by 3C and TEV in the assay; not shown: linker with 6xHis and TEV site, N-terminal, cleaved

Binder	binding result [1]	stoichiometry N [2]	binding result [3]
B1	binds		
B2	binds	2	
B3	binds		
B4			binds
B5			binds
B6	binds		
